Data published in FireProtDB (doi:10.1021/bi001900v).
“And” between values parts separate entries of the source, which are not always exact repeats. Equal values may be shown once.

Details: Dickeya chrysanthemi, reversible: yes, whole UniProt chain shown; for Tm / unfolding enthalpy (calorimetric) / unfolding enthalpy (van 't Hoff): Thermal, DSC; for denaturant m value / denaturant midpoint (higher = more stable) / unfolding free energy: 25 °C, GdnHCl
[1] = pH 5, CD, Sodium phosphate 0.1 M, sodium chloride 150 mM
[2] = pH 5, CD, Sodium phosphate buffer, NaCl
[3] = pH 5, Fluorescence, Sodium phosphate 0.1 M, sodium chloride 150 mM
[4] = pH 5, fluorescence, Sodium phosphate buffer, NaCl
[5] = pH 7, CD, Sodium phosphate 0.1 M, sodium chloride 150 mM
[6] = pH 7, CD, Sodium phosphate buffer, NaCl
[7] = pH 7, Fluorescence, Sodium phosphate 0.1 M, sodium chloride 150 mM

B1: Pectate lyase C wild type, P11073 (protein)
chain: MKSLITPITAGLLLALSQPLLAATDTGGYAATAGGNVTGAVSKTATSMQDIVNIIDAARLDANGKKVKGGAYPLVITYTGNEDSLINAAAANICGQWSKDPRGVEIKEFTKGITIIGANGSSANFGIWIKKSSDVVVQNMRIGYLPGGAKDGDMIRVDDSPNVWVDHNELFAANHECDGTPDNDTTFESAVDIKGASNTVTVSYNYIHGVKKVGLDGSSSSDTGRNITYHHNYYNDVNARLPLQRGGLVHAYNNLYTNITGSGLNVRQNGQALIENNWFEKAINPVTSRYDGKNFGTWVLKGNNITKPADFSTYSITWTADTKPYVNADSWTSTGTFPTVAYNYSPVSAQCVKDKLPGYAGVGKNLATLTSTACK
For B1, the Tm (pH 4) was 56.5 °C, the “unfolding enthalpy (calorimetric)” value (pH 4) was 256 kcal/mol and the “unfolding enthalpy (van 't Hoff)” value (pH 4) was 174 kcal/mol. For the same protein, the denaturant m value [1] was 15.7 kcal/mol/M, the “denaturant midpoint (higher = more stable)” value (shortened to “denaturant midpoint”) [1] was 0.95 M and the unfolding free energy [1] was 14.9 kcal/mol. The denaturant m value [2] was 12.5 kcal/mol/M and 15.7 kcal/mol/M, the “denaturant midpoint” value [2] was 0.97 M and the unfolding free energy [2] was 14.9 kcal/mol. The denaturant m value [3] was 14.5 kcal/mol/M, the “denaturant midpoint” value [3] was 0.96 M and the unfolding free energy [3] was 14 kcal/mol. The denaturant m value [4] was 14.5 kcal/mol/M, the “denaturant midpoint” value [4] was 0.96 M and the unfolding free energy [4] was 14 kcal/mol. The Tm (pH 5) was 59.8 °C, the “unfolding enthalpy (calorimetric)” value (pH 5) was 270 kcal/mol and the “unfolding enthalpy (van 't Hoff)” value (pH 5) was 181 kcal/mol. The Tm (pH 6) was 56.5 °C, the “unfolding enthalpy (calorimetric)” value (pH 6) was 255 kcal/mol and the “unfolding enthalpy (van 't Hoff)” value (pH 6) was 203 kcal/mol. For the same protein, the denaturant m value [5] was 12.2 kcal/mol/M and 11.8 kcal/mol/M, the “denaturant midpoint” value [5] was 0.99 M and 0.98 M and the unfolding free energy [5] was 12.1 kcal/mol and 11.6 kcal/mol. The denaturant m value [6] was 12.2 kcal/mol/M and 11.8 kcal/mol/M, the “denaturant midpoint” value [6] was 0.99 M and 0.98 M and the unfolding free energy [6] was 12.1 kcal/mol and 11.6 kcal/mol. The denaturant m value [7] was 13 kcal/mol/M, the “denaturant midpoint” value [7] was 1 M and the unfolding free energy [7] was 13 kcal/mol. For the same protein, the Tm (pH 7) was 51.2 °C, the “unfolding enthalpy (calorimetric)” value (pH 7) was 240 kcal/mol and the “unfolding enthalpy (van 't Hoff)” value (pH 7) was 219 kcal/mol. For the same protein, the Tm (pH 8) was 46.5 °C, the “unfolding enthalpy (calorimetric)” value (pH 8) was 235 kcal/mol and the “unfolding enthalpy (van 't Hoff)” value (pH 8) was 201 kcal/mol.
